Assays:
Settings in all cases: 20 nM; 72 h
[1] = system: MCF10A; test: percent viability (nuclei count relative to siNT); higher = more viable cells
Method: (§1)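 After 72 h, cells were fixed and stained with Hoechst and anti-fibrillarin, and nucleoli per nucleus were counted with CellProfiler. Values are plate-adjusted percent effect for the one-nucleolus and 5+ nucleoli phenotypes, normalised to siNT (0%) and to the positive controls siNOL11 or siKIF11 (100%), as the mean of biological triplicates. Percent viability is the nuclei count relative to siNT.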

[2] = system: MCF10A; test: 5+ nucleoli phenotype percent effect (relative to siNT 0% and siKIF11 100%); higher = more cells with five or more nucleoli
Method: as §1

[3] = system: MCF10A; test: one-nucleolus phenotype percent effect (relative to siNT 0% and siNOL11 100%); higher = more cells with one nucleolus (ribosome biogenesis inhibition)
Method: as §1

| Sequence | percent viability [1] [%] | 5+ nucleoli phenotype percent effect [2] [%] | one-nucleolus phenotype percent effect [3] [%] |
| --- | --- | --- | --- |
| UGGGGGCUGGAUGGGGUAGAGU [hsa-miR-6846-5p] | 23.9 | -0.876 | 7.84 |
| UGGGGGCUGGGAUGGGCCAUGGU [hsa-miR-6848-5p] | 22.5 | -4.7 | 7.99 |
| UGGGGGGACAGAUGGAGAGGACA [hsa-miR-6887-5p] | 22.6 | -8.17 | 22.8 |
| UGGGGGGACAGGAUGAGAGGCUGU [hsa-miR-6795-5p] | 16.8 | -6.99 | 28.6 |
| UGGGGGUGGUCUCUAGCCAAGG [hsa-miR-6842-5p] | 9.46 | -11.8 | -7.28 |
| UGGGGGUGUGGGGAGAGAGAG [hsa-miR-7110-5p] | 40.9 | -6.75 | 6.58 |
| UGGGGUAAGGAUAGGAGGGUCA [hsa-miR-6881-5p] | 24.8 | -3.46 | 4.74 |
| UGGGGUGCCCACUCCGCAAGUU [hsa-miR-4664-5p] | 9.8 | -17.8 | 23.6 |
| UGGGUAGAGAAGGAGCUCAGAGGA [hsa-miR-3132] | 21.4 | 62.9 | 1.88 |
| UGGGUCUUUGCGGGCGAGAUGA [hsa-miR-193a-5p] | 40.4 | -18.7 | 26.5 |
| UGGGUGGAAGAAGGUCUGGUU [hsa-miR-6745] | 6.73 | -9.03 | 17.1 |
| UGGGUGGUCUGGAGAUUUGUGC [hsa-miR-1293] | 7.23 | -9.27 | -46.3 |
| UGGGUGUAGGCUGGAGCUGAGG [hsa-miR-6772-5p] | 17 | -8.54 | 23.4 |
| UGGGUUCCUGGCAUGCUGAUUU [hsa-miR-23b-5p] | 59.2 | 1.4 | 2.38 |
| UGGGUUUACGUUGGGAGAACU [hsa-miR-629-5p] | 52.3 | -19.1 | 17.7 |
| UGGUAGACUAUGGAACGUAGG [hsa-miR-379-5p] | 31 | -21.8 | 12.4 |
| UGGUAGAGCUGAGGACA [hsa-miR-4451] | 16.3 | 9.42 | -7.47 |
| UGGUCAGAGGCAGCAGGAAAUGA [hsa-miR-6801-5p] | 54.5 | 27.3 | -5.6 |
| UGGUCGACCAGUUGGAAAGUAAU [hsa-miR-412-5p] | 46.8 | -1.85 | 13.6 |
| UGGUCUAGGAUUGUUGGAGGAG [hsa-miR-601] | 58.5 | -3.95 | 22.9 |
| UGGUCUGUCUCUGCCCUGGCAC [hsa-miR-6753-3p] | 21.6 | -4.31 | 39.6 |
| UGGUCUGUUCAUUCUCUCUUUUUGGCC [hsa-miR-7107-3p] | 15 | 0.728 | 13.2 |
| UGGUGCGGAGAGGGCCCACAGUG [hsa-miR-675-5p] | 39 | -14 | 29.5 |
| UGGUGGAGGAAGAGGGCAGCUC [hsa-miR-6880-5p] | 3.74 | -19.7 | -4.17 |

| Sequence | percent viability [1] [%] | 5+ nucleoli phenotype percent effect [2] [%] | one-nucleolus phenotype percent effect [3] [%] |
| --- | --- | --- | --- |
| UGGUGGGCACAGAAUCUGGACU [hsa-miR-541-3p] | 24.6 | -0.0057 | 17.6 |
| UGGUGGGCCGCAGAACAUGUGC [hsa-miR-654-5p] | 31.2 | -8.23 | 20.4 |
| UGGUGGGUGGGGAGGAGAAGUGC [hsa-miR-6769b-5p] | 18.8 | -22.4 | 23.2 |
| UGGUGGUUUACAAAGUAAUUCA [hsa-miR-876-3p] | 10.9 | -33.4 | 57.7 |
| UGGUUCUCUUGUGGCUCAAGCGU [hsa-miR-597-3p] | 22.4 | -23 | 44.1 |
| UGGUUGACCAUAGAACAUGCGC [hsa-miR-380-5p] | 17.6 | -0.352 | 13.4 |
| UGGUUUACCGUCCCACAUACAU [hsa-miR-299-5p] | 27.9 | -19.4 | 24.1 |
| UGUAAACAUCCCCGACUGGAAG [hsa-miR-30d-5p] | 62.7 | 30.3 | 0.554 |
| UGUAAACAUCCUACACUCAGCU [hsa-miR-30b-5p] | 93 | 34.3 | -9.57 |
| UGUAAACAUCCUACACUCUCAGC [hsa-miR-30c-5p] | 69.4 | 21.9 | 3.37 |
| UGUAAACAUCCUCGACUGGAAG [hsa-miR-30a-5p] | 47.2 | 9.35 | -3.76 |
| UGUAAACAUCCUUGACUGGAAG [hsa-miR-30e-5p] | 61.8 | 36.3 | 0.878 |
| UGUAACAGCAACUCCAUGUGGA [hsa-miR-194-5p] | 84.3 | -7.22 | 8.64 |
| UGUAGAGCAGGGAGCAGGAAGCU [hsa-miR-4732-5p] | 23.8 | -0.0062 | 6.48 |
| UGUAGAUACGAGCACCAGCCAC [hsa-miR-3935] | 38.5 | 20.9 | -7.2 |
| UGUAGGAACAGUUGAAUUUUGGCU [hsa-miR-8065] | 58.9 | 19.8 | -24.6 |
| UGUAGGCAUGAGGCAGGGCCCAGG [hsa-miR-6806-5p] | 32.5 | 44.5 | -16.3 |
| UGUAGUGUUUCCUACUUUAUGGA [hsa-miR-142-3p] | 82.8 | -20 | 23.4 |
| UGUAGUUGUAUUGUAUUGCCAC [hsa-miR-4703-3p] | 40.8 | -29.5 | 6.74 |
| UGUCACCCGCUCCUUGCCCAG [hsa-miR-6879-3p] | 47.6 | -23.3 | 3.65 |
| UGUCACUCGGCUCGGCCCACUAC [hsa-miR-668] | 60.6 | -8.26 | -1.34 |
| UGUCAGUGACUCCUGCCCCUUGGU [hsa-miR-4697-3p] | 98.6 | 3.98 | -7.45 |
| UGUCAGUUUGUCAAAUACCCCA [hsa-miR-223-3p] | 86.9 | 7.19 | -4.68 |

— the supplement of paper PMC10899765
